In patent US20260234242A1 (HAINAN SIMCERE ZAIMING PHARMACEUTICAL, published 2026):

T1: his-tagged human CDH6 extracellular region protein (hCDH6 ECD-his) (human, UniProt P55285 19-615)
T1 construct: also called Human CDH6-his; hCDH6-his; not shown: his tag
T1 sequence: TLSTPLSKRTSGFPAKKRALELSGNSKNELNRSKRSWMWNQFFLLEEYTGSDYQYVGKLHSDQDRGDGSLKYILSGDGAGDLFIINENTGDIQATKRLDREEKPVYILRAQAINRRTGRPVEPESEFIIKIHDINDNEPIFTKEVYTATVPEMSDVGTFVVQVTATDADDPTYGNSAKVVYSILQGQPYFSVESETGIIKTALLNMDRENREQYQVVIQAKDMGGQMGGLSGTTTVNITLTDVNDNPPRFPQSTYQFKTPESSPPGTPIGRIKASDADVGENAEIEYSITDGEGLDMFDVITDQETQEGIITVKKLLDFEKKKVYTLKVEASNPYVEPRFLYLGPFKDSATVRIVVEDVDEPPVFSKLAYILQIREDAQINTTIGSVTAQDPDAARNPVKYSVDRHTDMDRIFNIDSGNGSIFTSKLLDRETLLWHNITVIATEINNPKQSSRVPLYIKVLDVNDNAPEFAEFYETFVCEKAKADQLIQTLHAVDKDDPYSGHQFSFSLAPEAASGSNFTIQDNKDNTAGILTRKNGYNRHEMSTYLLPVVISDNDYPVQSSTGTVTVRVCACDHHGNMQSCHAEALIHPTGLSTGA


Target: T1, his-tagged human CDH6 extracellular …
Assay: ELISA, coated antigen; ELISA, coated hCDH6 ECD-his; plateau signal
Description: Human CDH6 protein (hCDH6 ECD-his, conventionally synthesized), monkey CDH6 protein (cynoCDH6 ECD-his, conventionally synthesized; the cynoCDH6 ECD sequence was derived from Uniprot #A0A2K5TW62 (19-615)), and murine CDH6 protein (mCDH6 ECD-his, conventionally synthesized; the mCDH6 ECD sequence was derived from Uniprot #P97326 (19-615)) were diluted with PBS to a final concentration of 1 μg/mL, and added to a 96-well ELISA plate at 100 μL/well. The plate was incubated at 4° C. overnight. The next day, the plate was washed 3 times with a plate washing solution (PBS+0.01% (v/v) Tween 20), and a blocking buffer (PBS+0.01% (v/v) Tween 20+2% (w/w) BSA) was added for blocking at room temperature for 2 h. The blocking buffer was discarded, and the plate was washed 3 times. The chimeric antibodies were diluted with 1% BSA+PBS (purchased from Cytiva, Cat. No. SH30264.01) and added to the 96-well plate at 50 μL/well. After incubation at 37° C. for 2 h, the plate was washed 3 times with a plate washing solution. […] The plate was incubated at 37° C. for 1 h and then washed 5 times with a plate washing solution. A TMB substrate (purchased from Seracare, Cat. No. 5120-0077) was added at 50 μL/well and incubated at room temperature for 10 min, then a stop solution (1.0 N HCl) was added at 50 μL/well. OD450 nm values were read using a microplate reader (Biotek). Analysis was performed by the GraphPad Prism software, data were fitted, and EC50 values were calculated. The chimeric antibodies tested all had strong binding to the human CDH6 protein, the monkey CDH6 protein, and the murine CDH6 protein.

Max OD450	Binder
1.89 OD450	DS-H01L02 (antibody, human IgG1, kappa, V domains shown, Positive control, variable regions from WO2018212136A1; also called positive control anti-human CDH6 antibody) VH: EVQLVQSGAEVKKPGASVKVSCKASGYTFTRNFMHWVRQAPGQGLEWMGWIYPGDGETEYAQKFQGRVTITADTSTSTAYMELSSLRSEDTAVYYCARGVYGGFAGGYFDFWGQGTLVTVSS VL: DIQMTQSPSSLSASVGDRVTITCKASQNIYKNLAWYQQKPGKAPKLLIYDANTLQTGVPSRFSGSGSGSDFTLTISSLQPEDFATYFCQQYYSGWAFGQGTKVEIKR
1.82 OD450	CHI-CDH6-12 (antibody, human IgG1, kappa, V domains shown, also called CH1-CDH6-12; chimeric antibody of murine CDH6-12) VH: EVNLVESGGGLVQPGDSLTLSCSASGFTFTDYYMSWVRQFPGKALEWLALIRNKANSYTTEYSASVKGRFTISRDNSQSILYLQMNALRAEDSATYYCARDSYYSHDGFAYWGQGTLVTVSA VL: DIVLTQSPASLAVSLGQRATISCRASKSVSTSSYTYMHWYQQKPGQPPKLLIKFASYLESGVPARFSGSGSGTDFTLNIHPVEEEDAATYYCQHSREFPFTFGTGTKLEIKR
